Starred links: 1 amine or outer side, 2 acyl side, 3 side chain; linkers in the order of their positions; H or OH if unused. Non-standard residues stand in square brackets, D forms with d. Groups on a side chain read outwards from the residue. No end group written: not given here. *: point of attachment. 2OEGgEgE‑C18 diacid = O=C(O)CCCCCCCCCCCCCCCCC(=O)N[C@@H](CCC(=O)N[C@@H](CCC(=O)NCCOCCOCC(=O)NCCOCCOCC(=O)*)C(=O)O)C(=O)O; C18 diacid = O=C(O)CCCCCCCCCCCCCCCCC(=O)*; C17 diacid = O=C(O)CCCCCCCCCCCCCCCC(=O)*; γGlu = O=C(O)[C@H](CCC(=O)[*:2])N[*:1]; NMeY = CN[C@@H](Cc1ccc(O)cc1)C(=O)O; AEEA = NCCOCCOCC(=O)O; Aib = CC(C)(N)C(=O)O
T1: full-length human GIPR with an N-terminal FLAG tag (human, UniProt P48546 22-466)
T1 sequence (looked up): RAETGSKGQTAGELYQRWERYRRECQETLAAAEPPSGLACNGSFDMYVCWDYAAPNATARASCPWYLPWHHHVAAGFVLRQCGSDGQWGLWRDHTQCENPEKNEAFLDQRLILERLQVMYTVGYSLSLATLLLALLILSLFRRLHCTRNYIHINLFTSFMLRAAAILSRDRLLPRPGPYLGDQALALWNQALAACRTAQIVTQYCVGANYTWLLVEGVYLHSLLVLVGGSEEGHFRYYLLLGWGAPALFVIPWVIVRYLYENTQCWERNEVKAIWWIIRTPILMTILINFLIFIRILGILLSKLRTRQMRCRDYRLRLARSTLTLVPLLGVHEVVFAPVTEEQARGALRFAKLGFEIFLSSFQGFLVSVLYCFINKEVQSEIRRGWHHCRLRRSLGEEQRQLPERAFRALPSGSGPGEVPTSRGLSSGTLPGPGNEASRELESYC


Experiments:
[1] = molecular target: full-length human GLP-1R with an N-terminal FLAG tag (human, UniProt P43220 24-463); test: cell-based or functional assay
[2] = molecular target: T1, full-length human GIPR with an …; test: cell-based or functional assay

Binder	Human GLP1R cAMP EC50, HEK293T [1] [nM]	Human GIPR cAMP EC50, HEK293T [2] [pM]
[NMeY][Aib]EGTFISDYSIALDR[Aib]K(2OEGgEgE‑C18 diacid)Q[Aib]NFVNWLLAQSG-OH (N-terminus assumed; SMILES CC[C@H](C)[C@H](NC(=O)[C@H](CO)NC(=O)[C@H](Cc1ccc(O)cc1)NC(=O)[C@H](CC(=O)O)NC(=O)[C@H](CO)NC(=O)[C@@H](NC(=O)[C@H](Cc1ccccc1)NC(=O)[C@@H](NC(=O)CNC(=O)[C@H](CCC(=O)O)NC(=O)C(C)(C)NC(=O)[C@H](Cc1ccc(O)cc1)NC)[C@@H](C)O)[C@@H](C)CC)C(=O)N[C@@H](C)C(=O)N[C@@H](CC(C)C)C(=O)N[C@@H](CC(=O)O)C(=O)N[C@@H](CCCNC(=N)N)C(=O)NC(C)(C)C(=O)N[C@@H](CCCCNC(=O)COCCOCCNC(=O)COCCOCCNC(=O)CC[C@H](NC(=O)CC[C@H](NC(=O)CCCCCCCCCCCCCCCCC(=O)O)C(=O)O)C(=O)O)C(=O)N[C@@H](CCC(N)=O)C(=O)NC(C)(C)C(=O)N[C@@H](CC(N)=O)C(=O)N[C@@H](Cc1ccccc1)C(=O)N[C@H](C(=O)N[C@@H](CC(N)=O)C(=O)N[C@@H](Cc1c[nH]c2ccccc12)C(=O)N[C@@H](CC(C)C)C(=O)N[C@@H](CC(C)C)C(=O)N[C@@H](C)C(=O)N[C@@H](CCC(N)=O)C(=O)N[C@@H](CO)C(=O)NCC(=O)O)C(C)C) [Compound No. 46]	105	0.3
[NMeY][Aib]EGTFISDYSIAK([AEEA-AEEA-γGlu-C18 diacid])DRIHQQNFVNWLLAQRPSSGAPPPS-NH2 [Compound No. 3]	10.5	0.6
[NMeY][Aib]EGTFISDYSIALDR[Aib]AQ[Aib]K([AEEA-AEEA-γGlu-γGlu-C17 diacid])FVNWLLAQRGGGGS-NH2 [Compound No. 30]	105	0.6
[NMeY][Aib]EGTFISDYSIALDR[Aib]AQ[Aib]K(2OEGgEgE‑C18 diacid)FVNWLLAQSG-OH [Compound No. 42]	5.5	0.8
[NMeY][Aib]EGTFISDYSI[Aib]LDR[Aib]AQ[Aib]NFVNWLLAQK([AEEA-AEEA-γGlu-γGlu-C17 diacid])GGGGS-NH2 [Compound No. 33]	437	0.8
[NMeY][Aib]EGTFISDYSIALDR[Aib]K([AEEA-AEEA-γGlu-γGlu-C17 diacid])Q[Aib]NFVNWLLAQSGGGGS-NH2 [Compound No. 31]	170	0.3
YXEGTFISDYSIAXDRXAQXDFVNWLLAQSPSSGAPPPS (N-methyl Tyr 1; Aib at 2,17,20; Lys(G5-C18 diacid) at 14; C-terminal NH2) [Compound No. 38]	45.7	0.6
YXEGTFISDYSIAXDRXAQXNFVNWLLAQSPSSGAPPPS (N-methyl Tyr 1; Aib at 2,17,20; Lys(G5-C18 diacid) at 14; C-terminal OH) [Compound No. 45]	8.22	0.6
YXEGTFISDYSIXXDRXAQXDFVNWLLAQSPSSGAPPPS (N-methyl Tyr 1; Aib at 2,13,17,20; Lys(G5-C18 diacid) at 14; C-terminal OH) [Compound No. 47]	148	0.8
YXEGTFISDYSIXXDRXAQXDFVNWLLAQSPSSGAPPPS (N-methyl Tyr 1; Aib at 2,13,17,20; Lys(G5-C18 diacid) at 14; C-terminal NH2) [Compound No. 48]	87.1	0.7
YXEGTFISDYSIAXDRXAQXNFVNWLLAQRPSSGAPPPS (N-methyl Tyr 1; Aib at 2,17,20; Lys(G5-C18 diacid) at 14; C-terminal OH) [Compound No. 44]	10.7	1.7
YXEGTFISDYSIAXDRXAQXDFVNWLLAQRPSSGAPPPS (N-methyl Tyr 1; Aib at 2,17,20; Lys(G5-C18 diacid) at 14; C-terminal OH) [Compound No. 43]	61.7	1
[NMeY][Aib]EGTFISDYSIALDR[Aib]AQ[Aib]K([AEEA-AEEA-γGlu-γGlu-C18 diacid])FVNWLLAQRPSSGAPPPS-NH2 [Compound No. 35]	89.1	0.7
[NMeY][Aib]EGTFISDYSI[Aib]K([AEEA-AEEA-γGlu-γGlu-C17 diacid])DR[Aib]AQ[Aib]NFVNWLLAQRGGGGS-NH2 [Compound No. 32]	1000	0.3
[NMeY][Aib]EGTFISDYSIAK([G5-γGlu-γGlu-C18 diacid])DR[Aib]AQ[Aib]NFVNWLLAQRPSSGAPPPS-NH2 [Compound No. 34]	1000	0.4
[NMeY][Aib]EGTFISDYSI[Aib]K([AEEA-AEEA-γGlu-γGlu-C17 diacid])DR[Aib]AQ[Aib]NFVNWLLAQSPSSGAPPPS-NH2 [Compound No. 29]	417	0.4
[NMeY][Aib]EGTFISDYSIALDRIHQ[Aib]NFVNWLLAQK([AEEA-AEEA-γGlu-C18 diacid])PSSGAPPPS-NH2 [Compound No. 2]	525	0.3

— patent publication US20230143604A1, “QW DOSING OF GIP RECEPTOR AGONIST PEPTIDE COMPOUNDS AND USES THEREOF” (TAKEDA PHARMACEUTICAL COMPANY LIMITED, priority 2020, published 2023)
